According to patent US20210403546A1 (LUDWIG INSTITUTE FOR CANCER RESEARCH, published 2021):

B1: 13A1_DH Fab (LCR13A1_VK_GLv1_08 + LCR13A1_VH_GLv1_06) (Fab, V domains shown)
VH: QVQLVQSGSVLAKPGASVKVSCKASGYTFTNYWTHWVRQAPGQGLEWIGTIYPGNSDTNYNQKFKDRAKLTAVTSTSTVYMELSSLRSEDTALYYCTREDSRSLNFNGWDYFDHWGQGTLVTVSS
VL: DIVMTQSPDSLAVSLGQRASISCRASESVDNYGISFLNWFQQKPGQPPKLLIYAASNQGSGVPSRFSGSGSGTDFTLNIHPLEAEDAATYYCQQSKEVPRTFGGGTKVEIK
notes: Human stabilized IgG1 Fab, 6xHis on CH1
B2: 13A1_AH Fab (LCR13A1_VK_GLv3_02 + LCR13A1_VH_GLv1_06) (Fab, V domains shown)
VH: QVQLVQSGSVLAKPGASVKVSCKASGYTFTNYWTHWVRQAPGQGLEWIGTIYPGNSDTNYNQKFKDRAKLTAVTSTSTVYMELSSLRSEDTALYYCTREDSRSLNFNGWDYFDHWGQGTLVTVSS
VL: DIVMTQSPDSLAVSLGERATINCKSSESVDNYGISFLNWYQQKPGKAPKLLIYAASNQGSGVPDRFSGSGSGTDFTLTISSLQAEDAAVYFCQQSKEVPRTFGGGTKLEIK
notes: as for B1
B3: 13A1_BG Fab (LCR13A1_VK_GLv1_06 + LCR13A1_VH_GLv1_05) (Fab, V domains shown)
VH: QVQLVQSGSVLAKPGASVKVSCKASGYTFTNYWTHWVRQAPGQGLEWIGTIYPGNSDTNYNQKFKDRAKLTAVTSTSTVYMELSSLRSEDTALYYCTREDSRSLYYNGWDYFDHWGQGTLVTVSS
VL: DIVMTQSPDSLAVSLGERATISCRASESVDNYGISFLNWYQQKPGQPPKLLIYAASNQGSGVPSRFSGSGSGTDFTLNIHPLEAEDAATYYCQQSKEVPRTFGGGTKVEIK
notes: as for B1
B4: 13A1_EF Fab (LCR13A1_VK_GLv1_09 + LCR13A1_VH_GLv1_04) (Fab, V domains shown)
VH: QVQLVQSGSVLAKPGASVKVSCKASGYTFTNYWMHWVRQAPGQGLEWIGTIYPGNSDTNYNQKFKDRAKLTAVTSTSTVYMELSSLRSEDTAVYYCTREDSRSLNFNGWDYFDYWGQGTLVTVSS
VL: DIVMTQSPDSLAVSLGQRASISCRASESVDNYGISLLNWYQQKPGQPPKLLIYAASNQGSGVPSRFSGSGSGTDFTLNIHPLEAEDAATYYCQQSKEVPRTFGGGTKVEIK
notes: as for B1
B5: 13A1_DG Fab (LCR13A1_VK_GLv1_08 + LCR13A1_VH_GLv1_05) (Fab, V domains shown)
VH: QVQLVQSGSVLAKPGASVKVSCKASGYTFTNYWTHWVRQAPGQGLEWIGTIYPGNSDTNYNQKFKDRAKLTAVTSTSTVYMELSSLRSEDTALYYCTREDSRSLYYNGWDYFDHWGQGTLVTVSS
VL: DIVMTQSPDSLAVSLGQRASISCRASESVDNYGISFLNWFQQKPGQPPKLLIYAASNQGSGVPSRFSGSGSGTDFTLNIHPLEAEDAATYYCQQSKEVPRTFGGGTKVEIK
notes: as for B1
B6: 13A1_AG Fab (LCR13A1_VK_GLv3_02 + LCR13A1_VH_GLv1_05) (Fab, V domains shown)
VH: QVQLVQSGSVLAKPGASVKVSCKASGYTFTNYWTHWVRQAPGQGLEWIGTIYPGNSDTNYNQKFKDRAKLTAVTSTSTVYMELSSLRSEDTALYYCTREDSRSLYYNGWDYFDHWGQGTLVTVSS
VL: DIVMTQSPDSLAVSLGERATINCKSSESVDNYGISFLNWYQQKPGKAPKLLIYAASNQGSGVPDRFSGSGSGTDFTLTISSLQAEDAAVYFCQQSKEVPRTFGGGTKLEIK
notes: as for B1
B7: 13A1_AF Fab (LCR13A1_VK_GLv3_02 + LCR13A1_VH_GLv1_04) (Fab, V domains shown)
VH: QVQLVQSGSVLAKPGASVKVSCKASGYTFTNYWMHWVRQAPGQGLEWIGTIYPGNSDTNYNQKFKDRAKLTAVTSTSTVYMELSSLRSEDTAVYYCTREDSRSLNFNGWDYFDYWGQGTLVTVSS
VL: DIVMTQSPDSLAVSLGERATINCKSSESVDNYGISFLNWYQQKPGKAPKLLIYAASNQGSGVPDRFSGSGSGTDFTLTISSLQAEDAAVYFCQQSKEVPRTFGGGTKLEIK
notes: Human stabilized IgG1 Fab: VH-CH1(IgG1)-6xHis and VK-CK, CK/CH1 with the stabilizing mutations of Chen et al 2016
B8: 13A1_BF Fab (LCR13A1_VK_GLv1_06 + LCR13A1_VH_GLv1_04) (Fab, V domains shown)
VH: QVQLVQSGSVLAKPGASVKVSCKASGYTFTNYWMHWVRQAPGQGLEWIGTIYPGNSDTNYNQKFKDRAKLTAVTSTSTVYMELSSLRSEDTAVYYCTREDSRSLNFNGWDYFDYWGQGTLVTVSS
VL: DIVMTQSPDSLAVSLGERATISCRASESVDNYGISFLNWYQQKPGQPPKLLIYAASNQGSGVPSRFSGSGSGTDFTLNIHPLEAEDAATYYCQQSKEVPRTFGGGTKVEIK
notes: as for B1
B9: 13A1_CG Fab (LCR13A1_VK_GLv1_07 + LCR13A1_VH_GLv1_05) (Fab, V domains shown)
VH: QVQLVQSGSVLAKPGASVKVSCKASGYTFTNYWTHWVRQAPGQGLEWIGTIYPGNSDTNYNQKFKDRAKLTAVTSTSTVYMELSSLRSEDTALYYCTREDSRSLYYNGWDYFDHWGQGTLVTVSS
VL: DIVMTQSPDSLAVSLGERATISCRASESVDNYGISLLNWFQQKPGQPPKLLIYAASNQGSGVPSRFSGSGSGTDFTLNIHPLEAEDAATYYCQQSKEVPRTFGGGTKVEIK
notes: as for B1
B10: 13A1_EH Fab (LCR13A1_VK_GLv1_09 + LCR13A1_VH_GLv1_06) (Fab, V domains shown)
VH: QVQLVQSGSVLAKPGASVKVSCKASGYTFTNYWTHWVRQAPGQGLEWIGTIYPGNSDTNYNQKFKDRAKLTAVTSTSTVYMELSSLRSEDTALYYCTREDSRSLNFNGWDYFDHWGQGTLVTVSS
VL: DIVMTQSPDSLAVSLGQRASISCRASESVDNYGISLLNWYQQKPGQPPKLLIYAASNQGSGVPSRFSGSGSGTDFTLNIHPLEAEDAATYYCQQSKEVPRTFGGGTKVEIK
notes: as for B1
B11: 13A1_EG Fab (LCR13A1_VK_GLv1_09 + LCR13A1_VH_GLv1_05) (Fab, V domains shown)
VH: QVQLVQSGSVLAKPGASVKVSCKASGYTFTNYWTHWVRQAPGQGLEWIGTIYPGNSDTNYNQKFKDRAKLTAVTSTSTVYMELSSLRSEDTALYYCTREDSRSLYYNGWDYFDHWGQGTLVTVSS
VL: DIVMTQSPDSLAVSLGQRASISCRASESVDNYGISLLNWYQQKPGQPPKLLIYAASNQGSGVPSRFSGSGSGTDFTLNIHPLEAEDAATYYCQQSKEVPRTFGGGTKVEIK
notes: as for B1
B12: 13A1_CF Fab (LCR13A1_VK_GLv1_07 + LCR13A1_VH_GLv1_04) (Fab, V domains shown)
VH: QVQLVQSGSVLAKPGASVKVSCKASGYTFTNYWMHWVRQAPGQGLEWIGTIYPGNSDTNYNQKFKDRAKLTAVTSTSTVYMELSSLRSEDTAVYYCTREDSRSLNFNGWDYFDYWGQGTLVTVSS
VL: DIVMTQSPDSLAVSLGERATISCRASESVDNYGISLLNWFQQKPGQPPKLLIYAASNQGSGVPSRFSGSGSGTDFTLNIHPLEAEDAATYYCQQSKEVPRTFGGGTKVEIK
notes: as for B1
B13: 13A1_DF Fab (LCR13A1_VK_GLv1_08 + LCR13A1_VH_GLv1_04) (Fab, V domains shown)
VH: QVQLVQSGSVLAKPGASVKVSCKASGYTFTNYWMHWVRQAPGQGLEWIGTIYPGNSDTNYNQKFKDRAKLTAVTSTSTVYMELSSLRSEDTAVYYCTREDSRSLNFNGWDYFDYWGQGTLVTVSS
VL: DIVMTQSPDSLAVSLGQRASISCRASESVDNYGISFLNWFQQKPGQPPKLLIYAASNQGSGVPSRFSGSGSGTDFTLNIHPLEAEDAATYYCQQSKEVPRTFGGGTKVEIK
notes: as for B1
B14: 13A1_CH Fab (LCR13A1_VK_GLv1_07 + LCR13A1_VH_GLv1_06) (Fab, V domains shown)
VH: QVQLVQSGSVLAKPGASVKVSCKASGYTFTNYWTHWVRQAPGQGLEWIGTIYPGNSDTNYNQKFKDRAKLTAVTSTSTVYMELSSLRSEDTALYYCTREDSRSLNFNGWDYFDHWGQGTLVTVSS
VL: DIVMTQSPDSLAVSLGERATISCRASESVDNYGISLLNWFQQKPGQPPKLLIYAASNQGSGVPSRFSGSGSGTDFTLNIHPLEAEDAATYYCQQSKEVPRTFGGGTKVEIK
notes: as for B1
B15: 13A1_BH Fab (LCR13A1_VK_GLv1_06 + LCR13A1_VH_GLv1_06) (Fab, V domains shown)
VH: QVQLVQSGSVLAKPGASVKVSCKASGYTFTNYWTHWVRQAPGQGLEWIGTIYPGNSDTNYNQKFKDRAKLTAVTSTSTVYMELSSLRSEDTALYYCTREDSRSLNFNGWDYFDHWGQGTLVTVSS
VL: DIVMTQSPDSLAVSLGERATISCRASESVDNYGISFLNWYQQKPGQPPKLLIYAASNQGSGVPSRFSGSGSGTDFTLNIHPLEAEDAATYYCQQSKEVPRTFGGGTKVEIK
notes: as for B1

What follows are binders tested against T1, human recombinant TGF-b1 (human, UniProt P01137 279-390) (assay: SPR (Biacore T200), 10 nM Fab over amine-coupled TGFb1 (492 RUs)).
T1 construct: also called TGF-β1; hTGF-β1
Description: FIG. 27 provides Biacore analysis of the new mutant variant antibodies and compares the new mutants versus parent variant 13A1-2F and versus mu13A1. Selected variants have different monovalent (huIgG1 stabilized Fab format). Biacore binding kinetics, range from lower to higher than the parental mouse 13A1 (mu13A1, hybrid with mouse VK/VH and huCK/huCH1). The data presented is ka, kd and apparent KD. TGFb1 (chip): 492 Rus, Fabs: 10 nM, Flow rate: 30 ul/min, Contact time: 510s, Diss. Time: 600s. Quality: Chi(2)<=1% Rmax and U score <=5. Data is presented for mutant variant antibodies 13A1_AF, 13A1_AG, 13A1_AH, 13A1_BF, 13A1_BG, 13A1_BH, 13A1_CF, 13A1_CG, 13A1_CH, 13A1_DF, 13A1_DG, 13A1_DH, 13A1_EF, 13A1_EG and 13A1_EH.
SPR binding analysis of Fabs: Experiments were performed using the Biacore T200 equipped with the Series S sensor chip CMS (GE Healthcare, cat. #BR-1005-30). The instrument temperature was set at 25° C. for all steps in the analysis while the compartment temperature was set at 10° C. All the assays were performed using the running buffer HBS-EP+ 1×. Recombinant TGF-β1 (Biocat, cat. #TG1-H4212-50 ug-AC) was immobilized with the standard amine-coupling chemistry using a solution of the ligand at 1 ug/mL in acetate, pH 4.5. Recombinant TGF-β1 was injected for several minutes to achieve a target density of 492 RUs. For TGF-β1 kinetic analysis Fabs were diluted in running buffer to 10 nM. One buffer blank was always injected before the injection of the antibody sample. The antibodies were then injected for 8.5 minutes (510 s) at 30 uL/min with 600 seconds of dissociation time. Regeneration was performed with 60 seconds of injection at 30 uL/min of 10 mM glycine 1.5. The Biacore binding kinetics range from lower to higher than the parental mouse 13A1 (mu13A1, hybrid with mouse VK/VH and huCK/huCH1.

T1 sequence (P01137 279-390 limits assumed): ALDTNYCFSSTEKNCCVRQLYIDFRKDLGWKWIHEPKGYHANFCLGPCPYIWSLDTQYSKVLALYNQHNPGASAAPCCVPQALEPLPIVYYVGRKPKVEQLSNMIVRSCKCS

Binding result, binds:
B1, B2, B3, B4, B5, B6, B7, B8, B9, B10, B11, B12, B13, B14, B15
